Results: paper PMC8040265, “A polysaccharide utilization locus from the gut bacterium Dysgonomonas mossii encodes functionally distinct carbohydrate esterases” (The Journal of Biological Chemistry, 2021)

Legend:
Test in all cases: model substrate hydrolysis, Michaelis-Menten fit
Format in all cases: biochemical, Dysgonomonas mossii
Conditions in all cases: 37 °C
[1] = substrate: COC(=O)/C=C/c1ccc(O)cc1
Excerpt: (§1) model substrate hydrolysis, Michaelis-Menten fit on DmCE1B_nt

[2] = substrate: COC(=O)/C=C/c1cc(OC)c(O)c(OC)c1
Excerpt: as §1

[3] = substrate: CC(=O)Oc1ccc2c(C)cc(=O)oc2c1
Excerpt: as §1

[4] = substrate: COC(=O)/C=C/c1ccc(O)c(OC)c1
Excerpt: as §1

[5] = substrate: COC(=O)/C=C/c1cc(OC)c(O)c(OC)c1; remark: listed apart in the source
Excerpt: (§2) model substrate hydrolysis, Michaelis-Menten fit on DmCE1B

[6] = substrate: CC(=O)Oc1ccc2c(C)cc(=O)oc2c1; remark: listed apart in the source
Excerpt: as §2

[7] = substrate: CC(=O)Oc1ccc2c(C)cc(=O)oc2c1; remark: listed apart in the source
Excerpt: model substrate hydrolysis, Michaelis-Menten fit on DmCE1B_ct

[8] = substrate: CC(=O)Oc1ccc([N+](=O)[O-])cc1
Excerpt: (§3) model substrate hydrolysis, Michaelis-Menten fit on DmCE6A

[9] = substrate: CC(=O)Oc1ccc2c(C)cc(=O)oc2c1; remark: listed apart in the source
Excerpt: as §3

[10] = substrate: CC(=O)Oc1ccc([N+](=O)[O-])cc1; remark: listed apart in the source
Excerpt: (§4) model substrate hydrolysis, Michaelis-Menten fit on DmCE1A

[11] = substrate: COC(=O)/C=C/c1cc(OC)c(O)c(OC)c1; remark: listed apart in the source
Excerpt: as §4

[12] = substrate: CC(=O)Oc1ccc2c(C)cc(=O)oc2c1; remark: listed apart in the source
Excerpt: as §4

B1: DmCE1B_nt (Dysgonomonas mossii DSM 22836) (protein)
chain: ISQNYKSVPNGYDIPRTGISHGQIDTVTYYSKTVDTNRKALVYTPPGYSKNKQYPVLYLLHGIGGDEKEWFSHGQPQVILDNLYADKKIVPMIVVLPNGRAMKDDRAIGNIMEAPKVEAFATFEKDLLNDLIPFIQKTYPVLKNQENRALAGLSMGGGQSLNFGLGNLDIFAWVGGFSSAPNTKTPEVLVPNPDDAKKKLKLLWISCGDKDGLLSFSKRTHDYLAKNQVPHVYQVIPNGYHDFNIWKQNLYMFSQLLFKPVTADLIEQYSYIPEEAEVGISASTNIPGAQYPQILSGNRVLFRIKAPDAKRVQVDLGKKYDMVREEEGSWAITTDPIVEGFHYYSILIDGVAVCDPASRTFYGMSRMASGIEIPE
notes: N-terminal CE1 domain + CBM48 (CBM48 is residues 294-393), signal peptide removed; IMAC purified from E. coli BL21(DE3)
[1]
  Km: 310 ± 90 µM
  kcat: 0.61 ± 0.1 s⁻¹
  kcat/Km: 2000 ± 700 M⁻¹ s⁻¹
[2]
  Km: 290 ± 70 µM
  kcat: 2.7 ± 0.34 s⁻¹
  kcat/Km: 9200 ± 2400 M⁻¹ s⁻¹
[3]
  Km: 300 ± 40 µM
  kcat: 630 ± 22 s⁻¹
  kcat/Km: 2.1e+06 ± 300000 M⁻¹ s⁻¹
[4]
  Km: 160 ± 30 µM
  kcat: 1.8 ± 0.13 s⁻¹
  kcat/Km: 11000 ± 2000 M⁻¹ s⁻¹

B2: DmCE1B (Dysgonomonas mossii DSM 22836) (protein)
chain: ISQNYKSVPNGYDIPRTGISHGQIDTVTYYSKTVDTNRKALVYTPPGYSKNKQYPVLYLLHGIGGDEKEWFSHGQPQVILDNLYADKKIVPMIVVLPNGRAMKDDRAIGNIMEAPKVEAFATFEKDLLNDLIPFIQKTYPVLKNQENRALAGLSMGGGQSLNFGLGNLDIFAWVGGFSSAPNTKTPEVLVPNPDDAKKKLKLLWISCGDKDGLLSFSKRTHDYLAKNQVPHVYQVIPNGYHDFNIWKQNLYMFSQLLFKPVTADLIEQYSYIPEEAEVGISASTNIPGAQYPQILSGNRVLFRIKAPDAKRVQVDLGKKYDMVREEEGSWAITTDPIVEGFHYYSILIDGVAVCDPASRTFYGMSRMASGIEIPEEGVDYYNLKNVPHGQIRQIRYFSDVTKAWRRAFVYTPAGYDANTSQRYPVLYLQHGGGEDETGWPNQGKMDAIIDNLIAEGKAKPMIVVMDNGYAVDPSASSANSPQGLRGLFQNSALEKVFINEIIPLVDKEFRTIADRDHRAMAGLSMGGFQAFQIAMTNLDKFAYVGGFSGGGIIEQGGDFSKMYNNVWSDVDTFNKRVKLIYLSIGTAEPTNMYQTVNNFHKEFEKAGIKHVYYESPGTSHEWLTWRRSLNQFAELLFK
notes: full length, signal peptide removed; CE1-CBM48-CE1; dimer in solution; pET28a-TEVc, IMAC purified from E. coli BL21(DE3)
[5]
  Km: 360 ± 100 µM
  kcat: 5 ± 0.83 s⁻¹
  kcat/Km: 14000 ± 4500 M⁻¹ s⁻¹
[6]
  Km: 370 ± 60 µM
  kcat: 870 ± 3 s⁻¹
  kcat/Km: 2.3e+06 ± 400000 M⁻¹ s⁻¹

B3: DmCE1B_ct (Dysgonomonas mossii DSM 22836) (protein)
chain: AEVGISASTNIPGAQYPQILSGNRVLFRIKAPDAKRVQVDLGKKYDMVREEEGSWAITTDPIVEGFHYYSILIDGVAVCDPASRTFYGMSRMASGIEIPEEGVDYYNLKNVPHGQIRQIRYFSDVTKAWRRAFVYTPAGYDANTSQRYPVLYLQHGGGEDETGWPNQGKMDAIIDNLIAEGKAKPMIVVMDNGYAVDPSASSANSPQGLRGLFQNSALEKVFINEIIPLVDKEFRTIADRDHRAMAGLSMGGFQAFQIAMTNLDKFAYVGGFSGGGIIEQGGDFSKMYNNVWSDVDTFNKRVKLIYLSIGTAEPTNMYQTVNNFHKEFEKAGIKHVYYESPGTSHEWLTWRRSLNQFAELLFK
notes: dimer; IMAC purified from E. coli BL21(DE3)
[7]
  Km: 420 ± 100 µM
  kcat: 11 ± 0.71 s⁻¹
  kcat/Km: 26000 ± 6600 M⁻¹ s⁻¹

B4: DmCE6A (Dysgonomonas mossii DSM 22836) (protein)
chain: QDKFHVFLCFGQSNMEGHAKIEAQDTIDIDGRFMMLQTVDCPELGRFKGNWYKAIPPLARCHTGLSPADYFGRTMVANLPSDTKVGVINVAVGGCRIELFDKENFQSYVDQSPEWLKNMVNEYDGNPYVRLIEMAKLAQSQGGVIKGILLHQGESNNGETDWPEKVRKVYDNILKDLNFEPNSIPLLAGELLDEEQYGACANMNLIINTLPNVIPNAHVISSKGCEGVKDRLHFSAAGYRTLGSRYAEKMLQLYNENSLKK
notes: signal peptide removed; single CE6 domain; pET28a-TEVc, IMAC purified from E. coli BL21(DE3)
[8]
  Km: 180 ± 10 µM
  kcat: 59 ± 0.87 s⁻¹
  kcat/Km: 320000 ± 20000 M⁻¹ s⁻¹
[9]
  Km: 29 ± 3 µM

B5: DmCE1A (Dysgonomonas mossii DSM 22836) (protein)
chain: QDLEGSISSEYNIPEGQYPIVNKDLSATFRIQAPSAQSMQVDICGKKYPMTKDAAGIWEATTDPLVVGFHYYFLLIDGVSVVDPASQTFFGCGRMASGIEIPEPRAESAYYSYQKDIPHGQVRECYYFSKVEGKQRRCFLYTPAEYETNPTKRYPVLYLQHGMGEDETGWSRQGKMAFILDNQISEKKCVPMIVVMDYGNCGYIHGTKKGESQKEFGALFTPILINDIIPYIDSNFRTLSDRDNRAMAGLSWGGHQAFETTLNNIDKFSHIGAFSGALFFLKEDNLKKAYNGVFAQPNVFNKKVHTLFLGMGSEEGMGSKRISEFLKANGINNTYYESAGTHHEWLTWRRCLNQFLPLIFKQN
notes: signal peptide removed; N-terminal CBM48 + CE1 domain; pET28a-TEVc, IMAC purified from E. coli BL21(DE3)
[10]
  Km: 4400 ± 670 µM
  kcat: 1.03 ± 0.07 s⁻¹
  kcat/Km: 230 ± 40 M⁻¹ s⁻¹
[11]
  Km: 180 ± 40 µM
  kcat: 0.13 ± 0.01 s⁻¹
  kcat/Km: 700 ± 200 M⁻¹ s⁻¹
[12]
  Km: 550 ± 60 µM
  kcat: 38.6 ± 1.26 s⁻¹
  kcat/Km: 70000 ± 8000 M⁻¹ s⁻¹
